The chains are these.
B1: Biotinylated full length PcrA (Geobacillus stearothermophilus), wild type [modified: biotin; biotin] [Geobacillus stearothermophilus] / LigA (NAD+-dependent DNA ligase), Bacillus subtilis [B. subtilis 168 (endogenous in the cell extract)] (parent complex)
chain 1: MNFLSEQLLAHLNKEQQEAVRTTEGPLLIMAGAGSGKTRVLTHRIAYLMAEKHVAPWNILAITFTNKAAREMRERVQSLLGGAAEDVWISTFHSMCVRILRRDIDRIGINRNFSILDPTDQLSVMKTILKEKNIDPKKFEPRTILGTISAAKNELLPPEQFAKRASTYYEKVVSDVYQEYQQRLLRNHSLDFDDLIMTTIQLFDRVPDVLHYYQYKFQYIHIDEYQDTNRAQYTLVKKLAERFQNICAVGDADQSIYRWRGADIQNILSFERDYPNAKVILLEQNYRSTKRILQAANEVIEHNVNRKPKRIWTENPEGKPILYYEAMNEADEAQFVAGRIREAVERGERRYRDFAVLYRTNAQSRVMEEMLLKANIPYQIVGGLKFYDRKEIKDILAYLRVIANPDDDLSLLRIINVPKRGIGASTIDKLVRYAADHELSLFEALGELEMIGLGAKAAGALAAFRSQLEQWTQLQEYVSVTELVEEVLDKSGYREMLKAERTIEAQSRLENLDEFLSVTKHFENVSDDKSLIAFLTDLALISDLDELDGTEQAAEGDAVMLMTLHAAKGLEFPVVFLIGMEEGIFPHNRSLEDDDEMEEERRLAYVGITRAEEELVLTSAQMRTLFGNIQMDPPSRFLNEIPAHLLETASRRQAGASRPAVSRPQASGAVGSWKVGDRANHRKWGIGTVVSVRGGGDDQELDIAFPSPIGIKRLLAKFAPIEKV
chain 2: MDKETAKQRAEELRRTINKYSYEYYTLDEPSVPDAEYDRLMQELIAIEEEHPDLRTPDSPTQRVGGAVLEAFQKVTHGTPMLSLGNAFNADDLRDFDRRVRQSVGDDVAYNVELKIDGLAVSLRYEDGYFVRGATRGDGTTGEDITENLKTIRNIPLKMNRELSIEVRGEAYMPKRSFEALNEERIKNEEEPFANPRNAAAGSLRQLDPKIAAKRNLDIFVYSIAELDEMGVETQSQGLDFLDELGFKTNQERKKCGSIEEVITLIDELQAKRADLPYEIDGIVIKVDSLDQQEELGFTAKSPRWAIAYKFPAEEVVTKLLDIELNVGRTGVITPTAILEPVKVAGTTVSRASLHNEDLIKEKDIRILDKVVVKKAGDIIPEVVNVLVDQRTGEEKEFSMPTECPECGSELVRIEGEVALRCINPECPAQIREGLIHFVSRNAMNIDGLGERVITQLFEENLVRNVADLYKLTKERVIQLERMGEKSTENLISSIQKSKENSLERLLFGLGIRFIGSKAAKTLAMHFESLENLKKASKEELLAVDEIGEKMADAVITYFHKEEMLELLNELQELGVNTLYKGPKKVKAEDSDSYFAGKTIVLTGKLEELSRNEAKAQIEALGGKLTGSVSKNTDLVIAGEAAGSKLTKAQELNIEVWNEEQLMGELKK
B2: Biotinylated full length PcrA (Geobacillus stearothermophilus), wild type [modified: biotin; biotin] [Geobacillus stearothermophilus] / UvrB, Bacillus subtilis [B. subtilis 168 (endogenous in the cell extract)] (parent complex)
chain 1: B1 chain 1
chain 2: MKDRFELVSKYQPQGDQPKAIEKLVKGIQEGKKHQTLLGATGTGKTFTVSNLIKEVNKPTLVIAHNKTLAGQLYSEFKEFFPNNAVEYFVSYYDYYQPEAYVPQTDTFIEKDASINDEIDKLRHSATSALFERRDVIIIASVSCIYGLGSPEEYREMVVSLRTEMEIERNELLRKLVDIQYARNDIDFQRGTFRVRGDVVEIFPASRDEHCVRVEFFGDEIERIREVDALTGEILGDRDHVAIFPASHFVTRAEKMEKAIQNIEKELEEQLKVMHENGKLLEAQRLEQRTRYDLEMMREMGFCSGIENYSRHLTLRPPGSTPYTLLDYFPDDFMIVVDESHVTIPQVRGMFNGDQARKQVLVDHGFRLPSALDNRPLRFEEFEKHMHNIVYVSATPGPYEIEHTDEMVEQIIRPTGLLDPLIDVRPIEGQIDDLIGEIQARIERNERVLVTTLTKKMSEDLTDYLKEIGIKVNYLHSEIKTLERIEIIRDLRLGKYDVLVGINLLREGLDIPEVSLVAILDADKEGFLRSERSLIQTIGRAARNAEGRVIMYADKITKSMEIAINETKRRREQQERFNEEHGITPKTINKEIRDVIRATVAAEDKAEYKTKAAPKLSKMTKKERQKVVEQMEHEMKEAAKALDFERAAELRDLLLELKAEG
B3: Biotinylated full length PcrA (Geobacillus stearothermophilus), wild type [modified: biotin; biotin] [Geobacillus stearothermophilus] / DNA pol I, Bacillus subtilis [B. subtilis 168 (endogenous in the cell extract)] (parent complex)
chain 1: B1 chain 1
chain 2: MTERKKLVLVDGNSLAYRAFFALPLLSNDKGVHTNAVYGFAMILMKMLEDEKPTHMLVAFDAGKTTFRHGTFKEYKGGRQKTPPELSEQMPFIRELLDAYQISRYELEQYEADDIIGTLAKSAEKDGFEVKVFSGDKDLTQLATDKTTVAITRKGITDVEFYTPEHVKEKYGLTPEQIIDMKGLMGDSSDNIPGVPGVGEKTAIKLLKQFDSVEKLLESIDEVSGKKLKEKLEEFKDQALMSKELATIMTDAPIEVSVSGLEYQGFNREQVIAIFKDLGFNTLLERLGEDSAEAEQDQSLEDINVKTVTDVTSDILVSPSAFVVEQIGDNYHEEPILGFSIVNETGAYFIPKDIAVESEVFKEWVENDEQKKWVFDSKRAVVALRWQGIELKGAEFDTLLAAYIINPGNSYDDVASVAKDYGLHIVSSDESVYGKGAKRAVPSEDVLSEHLGRKALAIQSLREKLVQELENNDQLELFEELEMPLALILGEMESTGVKVDVDRLKRMGEELGAKLKEYEEKIHEIAGEPFNINSPKQLGVILFEKIGLPVVKKTKTGYSTSADVLEKLADKHDIVDYILQYRQIGKLQSTYIEGLLKVTRPDSHKVHTRFNQALTQTGRLSSTDPNLQNIPIRLEEGRKIRQAFVPSEKDWLIFAADYSQIELRVLAHISKDENLIEAFTNDMDIHTKTAMDVFHVAKDEVTSAMRRQAKAVNFGIVYGISDYGLSQNLGITRKEAGAFIDRYLESFQGVKAYMEDSVQEAKQKGYVTTLMHRRRYIPELTSRNFNIRSFAERTAMNTPIQGSAADIIKKAMIDMAAKLKEKQLKARLLLQVHDELIFEAPKEEIEILEKLVPEVMEHALALDVPLKVDFASGPSWYDAK

Among the data in article PMC5397179 (2017) are screen value values, retold here.

In the first assay the parent is B1. In words: pulldown quantified by mass spectrometry; parent: 26; read off a plot.
With chain 1 K712A, the screen value was ~21.
Regarding chain 1 L714A, the screen value was ~25.

The variants in another assay derive from B2. In words: pulldown quantified by mass spectrometry; parent: 12; read off a plot.
Regarding chain 1 L714A, the screen value is ~2.3.
Consider chain 1 K712A, for which the screen value was ~0.

The variants in another assay derive from B3. The assay can be described thus: pulldown quantified by mass spectrometry; parent: 97; read off a plot.
As to chain 1 L714A, the screen value is ~70.
Still for that read-out and setting: next, chain 1 K712A: ~49.
